# Columns and labels:
# [1] = molecular target: p217+ tau peptides (endogenous human tau protein or tau fragments phosphorylated at T217 and/or T212) (human) (UniProt P10636); test: Simoa sandwich ELISA, pT3 capture beads, pooled AD CSF diluted 1:4
# [2] = molecular target: p217+ tau peptides (endogenous human tau protein or tau fragments phosphorylated at T217 and/or T212) (human) (UniProt P10636); test: Simoa sandwich ELISA, pT3 capture beads, pooled AD CSF diluted 1:64
# [3] = molecular target: p217+ tau peptides (endogenous human tau protein or tau fragments phosphorylated at T217 and/or T212) (human) (UniProt P10636); test: Simoa sandwich ELISA, pT3 capture beads, pooled AD CSF diluted 1:8
# [4] = molecular target: p217+ tau peptides (endogenous human tau protein or tau fragments phosphorylated at T217 and/or T212) (human) (UniProt P10636); test: Simoa sandwich ELISA, pT3 capture beads, pooled AD CSF diluted 1:2
# [5] = molecular target: p217+ tau peptides (endogenous human tau protein or tau fragments phosphorylated at T217 and/or T212) (human) (UniProt P10636); test: Simoa sandwich ELISA, pT3 capture beads, pooled AD CSF diluted 1:32
# [6] = molecular target: p217+ tau peptides (endogenous human tau protein or tau fragments phosphorylated at T217 and/or T212) (human) (UniProt P10636); test: Simoa sandwich ELISA, pT3 capture beads, pooled AD CSF diluted 1:16
# Sequence of p217+ tau peptides (endogenous human tau protein or tau fragments phosphorylated at T217 and/or T212) (human) (P10636 other isoform, or with tags, fused parts or gaps limits assumed): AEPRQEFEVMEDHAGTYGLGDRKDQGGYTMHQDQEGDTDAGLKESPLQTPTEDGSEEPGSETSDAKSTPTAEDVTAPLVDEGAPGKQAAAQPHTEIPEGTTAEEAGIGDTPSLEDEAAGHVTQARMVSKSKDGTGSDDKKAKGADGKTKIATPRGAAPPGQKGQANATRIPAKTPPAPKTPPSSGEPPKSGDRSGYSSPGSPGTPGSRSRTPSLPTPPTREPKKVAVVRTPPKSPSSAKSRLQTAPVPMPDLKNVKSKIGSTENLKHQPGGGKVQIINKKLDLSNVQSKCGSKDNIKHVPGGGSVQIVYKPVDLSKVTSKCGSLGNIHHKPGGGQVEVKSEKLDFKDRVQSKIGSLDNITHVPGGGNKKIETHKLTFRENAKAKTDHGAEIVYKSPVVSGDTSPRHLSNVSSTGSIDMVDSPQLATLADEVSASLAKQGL
substance,measurement,setting,value
Quanterix tau 2.0 assay detector (antibody),S/N @ 1:4 dilution,[1],262 S/N
same,S/N @ 1:64 dilution,[2],19 S/N
same,S/N @ 1:8 dilution,[3],147 S/N
same,S/N @ 1:2 dilution,[4],525 S/N
same,S/N @ 1:32 dilution,[5],35 S/N
same,S/N @ 1:16 dilution,[6],75 S/N

# — US20190271710A1
